Results on two molecules are retold here after PMC12032919, “A blocking antibody against anti-Müllerian hormone restores ovulation and normal androgen levels in a spontaneous rat model of polycystic ovary syndrome” (eBioMedicine, 2025).

Assay [1] deals with T1, human AMH procomplex (completely cleaved AMH, non-covalent complex of the N-terminal and C-terminal homodimers) (human).
T1 sequence (P03971 25-560, looked up): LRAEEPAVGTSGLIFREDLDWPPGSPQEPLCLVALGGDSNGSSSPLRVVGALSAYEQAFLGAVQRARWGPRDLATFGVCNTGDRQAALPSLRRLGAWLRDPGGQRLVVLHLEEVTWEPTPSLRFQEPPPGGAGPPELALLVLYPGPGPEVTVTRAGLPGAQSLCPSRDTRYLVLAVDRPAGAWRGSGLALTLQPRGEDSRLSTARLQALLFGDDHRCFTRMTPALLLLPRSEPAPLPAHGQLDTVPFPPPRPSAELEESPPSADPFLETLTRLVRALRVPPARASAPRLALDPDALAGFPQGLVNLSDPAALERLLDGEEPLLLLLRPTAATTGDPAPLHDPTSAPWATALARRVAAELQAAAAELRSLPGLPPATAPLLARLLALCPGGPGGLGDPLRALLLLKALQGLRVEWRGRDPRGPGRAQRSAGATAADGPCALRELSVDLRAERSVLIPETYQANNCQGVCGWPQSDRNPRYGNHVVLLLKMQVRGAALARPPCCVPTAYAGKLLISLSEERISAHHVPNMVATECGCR
The assay is described as follows: ELISA; AMH captured on Mab10.6 coated on plates, incubated with various concentrations of AMHR2-Fc; bound AMHR2-Fc detected with anti-human Fc antibody conjugated to HRP; n = 3.

Assay [2] has as its target T2, bovine AMH procomplex present in serum (Bos taurus, UniProt P03972).
T2 construct: anti-Müllerian hormone, bovine, N-terminal pro-domain of the procomplex; anti-Müllerian hormone, bovine, C-terminal mature domain of the procomplex; source: endogenous, serum of one bovine sample
Put plainly: ELISA; AMH of bovine, ovine or mouse serum held on plate-captured AMHR2-Fc; detected with biotinylated Mab22A2 (0.5 ug/mL) and streptavidin-HRP; pair: Mab22A2 with serum AMH. The following applies: one partner purified.

Assay [3] has as its target T3, ovine AMH procomplex present in serum (Ovis aries, UniProt T1SHH2).
T3 construct: anti-Müllerian hormone, ovine, N-terminal pro-domain of the procomplex; anti-Müllerian hormone, ovine, C-terminal mature domain of the procomplex; source: endogenous, serum of one ovine sample
The description is as above. The following applies: one partner purified.

For assay [4], the target named is T4, mouse AMH procomplex present in serum (Mus musculus, strain , UniProt P27106).
T4 construct: anti-Müllerian hormone, mouse, N-terminal pro-domain of the procomplex; anti-Müllerian hormone, mouse, C-terminal mature domain of the procomplex; source: endogenous, serum of one mouse sample
The description is as above. The following applies: one partner purified.

T4 sequence (P27106 whole entry, looked up, the tested form may be a part, one chain of several): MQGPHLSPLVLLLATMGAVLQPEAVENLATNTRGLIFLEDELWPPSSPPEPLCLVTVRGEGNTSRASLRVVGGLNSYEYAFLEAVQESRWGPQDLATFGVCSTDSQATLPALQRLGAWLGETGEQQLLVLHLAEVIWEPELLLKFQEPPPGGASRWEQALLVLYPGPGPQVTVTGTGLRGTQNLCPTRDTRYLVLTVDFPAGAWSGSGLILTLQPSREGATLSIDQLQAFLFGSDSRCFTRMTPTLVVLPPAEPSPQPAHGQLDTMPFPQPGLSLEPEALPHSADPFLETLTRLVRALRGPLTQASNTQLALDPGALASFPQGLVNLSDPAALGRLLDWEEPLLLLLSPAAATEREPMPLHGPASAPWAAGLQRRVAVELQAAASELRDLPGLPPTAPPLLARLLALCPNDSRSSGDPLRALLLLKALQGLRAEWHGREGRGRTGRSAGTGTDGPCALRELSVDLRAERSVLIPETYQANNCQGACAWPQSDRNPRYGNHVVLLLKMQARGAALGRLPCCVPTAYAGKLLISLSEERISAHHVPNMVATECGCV

B1: soluble fusion protein containing the extracellular domain of human AMHR2 and the Fc part of human IgG1 (AMHR2-Fc) (Fc fusion)
chain: PPNRRTCVFFEAPGVRGSTKTLGELLDTGTELPRAIRCLYSRCCFGIWNLTQDRAQVEMQGCRDSDEPGCESLHCDPSPRAHPSPGSTLFTCSCGTDFCNANYSHLPPPGSPGTPGSQGPQAAPGESIWMAL
In assay [1], B1 came in with a mean AUC of the ELISA curve of 75900.

B2: Mab22A2, monoclonal antibody against human AMH (antibody, V domains shown)
VH: QIRLVQSGPELKKPGETVKISCKASGYSFTNYLMHWVKQAPGEALKWMGWINTNIGQPTYAEDFKGRFVFSLEASISTAFLHINSLKDEDTATYFCTSGYFGYDWYFDVWGVGTTVTVSS
VL: DIQMTQSPDSLSASVGETVTITCRASENIQNYLAWYQHKQGKSPQLLVYNAQTLANGVSSRFSGSGSGTHYSLNIHSLQPEDFGTYYCQHFWGTPRTFGGGTKLIIK
notes: the text calls the antibody IgG1a; Mouse IgG1 kappa; also called biotinylated Mab22A2; source: mouse monoclonal, previously prepared by immunisation of female BALB/c mice with human AMH precursor; hybridoma cells
For the molecule B2, the binding result in assay [2], in assay [3] and in assay [4] was “binds” each time.
